Assay [1] addresses T1, human CD5 on transfected HEK293T cells (human, UniProt P06127 25-495).
T1 construct: whole, on cells; also called huCD5; Human CD5 Cells
T1 sequence (looked up): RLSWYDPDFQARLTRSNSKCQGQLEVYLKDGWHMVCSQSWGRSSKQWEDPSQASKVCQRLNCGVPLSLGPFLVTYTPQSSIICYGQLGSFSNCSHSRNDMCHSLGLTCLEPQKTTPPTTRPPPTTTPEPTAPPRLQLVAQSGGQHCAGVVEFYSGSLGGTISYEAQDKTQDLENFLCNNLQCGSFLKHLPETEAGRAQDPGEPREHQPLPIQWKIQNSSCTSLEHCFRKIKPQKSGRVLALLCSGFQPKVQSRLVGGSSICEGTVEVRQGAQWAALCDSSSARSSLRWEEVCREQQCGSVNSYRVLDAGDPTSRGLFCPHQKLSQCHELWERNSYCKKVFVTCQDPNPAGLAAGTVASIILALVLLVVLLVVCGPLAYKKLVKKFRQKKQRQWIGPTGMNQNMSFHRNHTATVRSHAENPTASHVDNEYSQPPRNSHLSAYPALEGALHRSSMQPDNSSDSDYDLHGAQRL
Briefly: flow cytometry, periplasmic extract on transfected HEK293T cells. A general note: A flow cytometer gives signals particle by particle.

Assay [2] concerns the target T2, cynomolgus CD5 on transfected HEK293T cells (cynomolgus (Table 8B); rhesus macaque …).
T2 construct: whole, on cells; also called Cynomolgus CD5 Cells; rhesus macaque (Macaca mulatta) CD5
The assay is described as above.

In assay [3] the target is T3, biotinylated cynomolgus CD5-HIS (cynomolgus).
T3 construct: Loaded onto streptavidin Octet pins; also called CynoCD5; SA-Cyno CD5
Briefly: BLI (Octet), biotinylated CD5-HIS on streptavidin pins, periplasmic extract, off-rate. Background: In BLI a coated tip is dipped into the sample, and binding shifts an interference pattern.

Assay [4] deals with T4, biotinylated human CD5-HIS (human, UniProt P06127 25-372, biotinylated).
T4 construct: Loaded onto streptavidin Octet pins; also called huCD5; SA-human CD5; not shown: HIS tag
T4 sequence (looked up): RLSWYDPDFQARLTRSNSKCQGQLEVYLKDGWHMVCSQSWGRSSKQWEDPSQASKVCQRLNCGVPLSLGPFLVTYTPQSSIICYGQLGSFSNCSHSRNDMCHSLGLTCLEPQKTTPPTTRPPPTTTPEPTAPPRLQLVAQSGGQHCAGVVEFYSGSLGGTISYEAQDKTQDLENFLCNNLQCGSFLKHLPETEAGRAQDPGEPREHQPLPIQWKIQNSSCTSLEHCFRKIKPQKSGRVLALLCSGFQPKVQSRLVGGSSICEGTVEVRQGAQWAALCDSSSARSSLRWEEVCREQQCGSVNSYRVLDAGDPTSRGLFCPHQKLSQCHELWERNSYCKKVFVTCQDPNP
Described as above.

Assay [5] has as its target T3, biotinylated cynomolgus CD5-HIS. Briefly: BLI (Octet), biotinylated CD5-HIS on streptavidin pins.
Assay [6] has as its target T4, biotinylated human CD5-HIS. The description is as above.
The target of assay [7] is T4, biotinylated human CD5-HIS. Briefly: BLI; KD on human CD5 divided by KD on cynomolgus CD5.

This note sets out measurements from patent US20260159603A1 (BEAM THERAPEUTICS, published 2026).

In general, koff refers to the first-order rate constant of dissociation. A lower koff goes with a long-lived complex. As usually defined, the Kd is the equilibrium constant for the complex coming apart. What is called kon is the rate constant with which the complex forms. Read a high kon as fast association.

B1: ABTx329 (VHH)
VHH: QLQLVESGGGLVQPGESLRLSCAASGFSFSRVGMNWYRQAPGKERELVASISSDGSRTNYAHFVKGRFTISRDNVKNMVYLQMNSLKLEDTAVYYCNVPGNSWGQGTQVTVSS
notes: VHH in periplasmic extract of the phage display clone; also called clone 1091; not shown: c-myc tag of the phagemid construct (detected with anti-c-myc 9E10)
As for B1, the “percent of cells showing binding” value in assay [1] worked out at 72%; in assay [2], 66.5%. Moreover, the koff in assay [3] was found to be 0.000488 s⁻¹; in assay [4], 0.000372 s⁻¹; in assay [5], 0.00017 s⁻¹; in assay [6], 9.3e-05 s⁻¹. In addition, the Kd in assay [5] stood at 1.6 nM; in assay [6] it was 0.69 nM. The kon in assay [5] turned out to be 110000 M⁻¹ s⁻¹; in assay [6], 130000 M⁻¹ s⁻¹. In assay [7], the “Hu/Cyno KD” value turned out to be 0.4.

B2: ABTx327 (VHH)
VHH: QVQLVESGGGLVQPGGSLRLSCVASGGTFSTYGMGWFRQAPGKEREFVAVITGSGVGTQYADSVKDRFTISRENAKNTVYLQMNTLKLEDTAVYYCVSGHRPGWAVIRADAYEYWGQGTQVTVSS
notes: VHH in periplasmic extract of the phage display clone; also called clone 834; not shown: c-myc tag of the phagemid construct (detected with anti-c-myc 9E10)
As for B2, the “percent of cells showing binding” value is 68% in assay [1] and 71.7% in assay [2]. For the same molecule, the dissociation rate constant (koff) stood at 0.0329 s⁻¹ in assay [3], 0.0195 s⁻¹ in assay [4], 0.00011 s⁻¹ in assay [5] and 3.6e-05 s⁻¹ in assay [6]. Also, the results for the equilibrium dissociation constant (Kd) in assay [5] and in assay [6] were 0.78 nM and 0.22 nM, respectively. Besides, the results for the kon in assay [5] and in assay [6] were 140000 M⁻¹ s⁻¹ and 160000 M⁻¹ s⁻¹, respectively. Moreover, the “Hu/Cyno KD” value in assay [7] came to 0.3.
